Experimental data taken from US20190192675A1 (Merck Sharp & Dohme, published 2019).
Non-standard residues stand in square brackets, D forms with d. No end group written: not given here. Lys(N3) = [N-]=[N+]=NCCCC[C@H](N)C(=O)O; Aib = CC(C)(N)C(=O)O

Columns and labels:
[1] = biological target: human GLP-1 receptor (GLP1R) (human, UniProt P43220 24-463); test: cell-based or functional assay
[2] = biological target: human Glucagon receptor (GCGR) (human, UniProt P47871 26-477); test: cell-based or functional assay

Sequence of human GLP-1 receptor (GLP1R) (P43220 24-463): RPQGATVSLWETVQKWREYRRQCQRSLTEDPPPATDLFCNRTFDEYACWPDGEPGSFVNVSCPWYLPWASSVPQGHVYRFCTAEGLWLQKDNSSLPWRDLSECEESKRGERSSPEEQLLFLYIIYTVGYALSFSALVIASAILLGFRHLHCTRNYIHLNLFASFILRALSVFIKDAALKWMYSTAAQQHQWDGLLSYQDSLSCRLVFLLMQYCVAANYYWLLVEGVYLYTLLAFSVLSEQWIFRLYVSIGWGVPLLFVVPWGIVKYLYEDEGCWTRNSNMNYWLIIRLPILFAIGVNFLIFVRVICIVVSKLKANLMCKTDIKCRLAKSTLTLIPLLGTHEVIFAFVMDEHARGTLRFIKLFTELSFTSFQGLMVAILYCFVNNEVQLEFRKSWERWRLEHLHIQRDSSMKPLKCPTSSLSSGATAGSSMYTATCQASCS

Binder: H[Aib]QGTFTSDKSKYLD[Aib]RAAQDFVQWLMNTKQ[Lys(N3)]-NH2 [PEP89]
- hGLP1R EC50 (nM), cAMP activity assay [1]: 0.044 nM
- hGCGR_EC50 (nM), cAMP activity assay [2]: 3.9 nM

Binder: HXQGTFTSDKSKYLDERAAQDFVXWLLDT (D-Ser (s) at 2; K(γEγEC16) at 10; Nle(εN3) at 24; C-terminal amide) [PEP87]
- hGCGR_EC50 (nM), cAMP activity assay [2]: 0.019 nM

Binder: HXQGTFTSDKSKYLDERAAQDFVXWLLDT (D-Ser (s) at 2; Nle(εN3) at 24; C-terminal amide) [PEP88]
- hGLP1R EC50 (nM), cAMP activity assay [1]: 0.09 nM
- hGCGR_EC50 (nM), cAMP activity assay [2]: 0.093 nM
